Experiments:
LoVo = LoVo colorectal adenocarcinoma xenograft model; assay type: in vivo, mice; settings: administered at a much higher dose than the PBD conjugates
Experimental: Numbers in parentheses represent dose in mg/kg. Arrows represent days of dosing.
Both conjugates were administered at 0.5mg/kg on a q7dx6 regimen (where mice were dosed every 7 days for 6 weeks).

CTG-0162 = CTG-0162 patient-derived NSCLC xenograft model; assay type: in vivo; settings: dosed ten-fold higher than the PBD ADCs
Excerpt: (§1) Numbers in parentheses represent dose in mg/kg, and arrows represent days of dosing.

CTG-9786 = CTG-9786 patient-derived head and neck cancer xenograft model; assay type: in vivo; settings: much higher dose than the PBD ADCs
Excerpt: as §1

B1: AbA-MMAE: AbA conjugated to monomethyl auristatin E via a cleavable valine-citrulline (VC) linker; DAR about 3 (conjugate, chains of the INN, looked up)
VH: EVQLQESGPGLVKPSQTLSLTCTVSGYSISRDFAWNWIRQPPGKGLEWMGYISYNGNTRYQPSLKSRITISRDTSKNQFFLKLNSVTAADTATYYCVTASRGFPYWGQGTLVTVSS
VL: DIQMTQSPSSMSVSVGDRVTITCHSSQDINSNIGWLQQKPGKSFKGLIYHGTNLDDGVPSRFSGSGSGTDYTLTISSLQPEDFATYYCVQYAQFPWTFGGGTKLEIK
modifications: vc-MMAE payload, DAR about 3
tumor response (LoVo): active in this model, with activity similar to that observed with Ab1(S239C)-PBD | inhibition of tumor growth (CTG-0162): less efficacious | inhibition of tumor growth (CTG-9786): effective, but required a much higher dose
